50 sequences from the domain aggregation screens of Martell et al. (2025) can be followed below.

This series can be described thus: soluble fraction after stress (log2 fold change); higher = more stays soluble; pooled small domains, quantitative proteomics. The settings on record: stress: 75 degC.
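Further: 20 min heating vs room temperature control held 20 min.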

Consider “HMAAADLNMRAKLADLGGMSYGELSIWEKTHGMEFAAWEHEWEKLNSGTQADGLKFPKHLPEGFPT”, for which the “soluble fraction (log2)” value came out at 0.185.
Consider “HMAAAKDVMDWQNAIRGLTDAKGKPYSPTYLKTVHNQLSALFNHAVRYYGLQVNPAAKAGNMGVEE”, for which the “soluble fraction (log2)” value is -0.131.
On to “HMAADDGSARAEQLREMYSLISGLDKLDKAIILMWLDERSYDEIAEVTGFTRNNVATRLHRIKSRLARQSN”, for which the “soluble fraction (log2)” value is -1.66.
The figure for “HMAAEIGSGVVDAYDLRLRSQPSTDAETIIYLDNGAKLSVQEDLGDWYKVVSGTYTGYVSAEYVAYTPSPE” is -0.806; for “HMAAELHPYGADSYRGDNPPAGYEIKAKEESKKFHTPSSPWYGRTIAEIWFRTEEAAEAAGFINAVK” it is -0.246; for “HMAAELQALSVRELEVLDQLAGGASNREIAQRLYISENTVRNHVHSILTKLKLQNRTQLVGMT” it is -0.981.
Regarding “HMAAESWTEKSRALAAAGLVVMGRDAQTKIEELTNLAPLIEAANASNTRLLTSQSIDELLSIVPTEENL”, the “soluble fraction (log2)” value came out at 0.0818.
Consider “HMAAGKGVTTGSVRLRKGSNTDSAIIATLKKDTELILYGKKDGWYSVKTSDGTEGFVSSKYVKVTEAY”, for which the “soluble fraction (log2)” value came to 0.61.
The figure for “HMAAGLTPKQKAFADNYIKNGGNAAEAARAAGYSLKNVGANAGKLLKNPKIAAYIAEKQAELDRRNGT” is 0.196.
“HMAAINPSALREPATPPEQLSAGDSVLHPRFGRGEILELQQQGGDPRAIVQFINEPKPRTLVLRYAQLRK”: the “soluble fraction (log2)” value is -0.138.
As to “HMAAKADAVKKAIAAIGKVDASEDSKAKVEAARKAYAALTEDQKKLVEASQLKLLTEAEAAYQQAVEESKK”, the “soluble fraction (log2)” value is -0.283.
As for “HMAAMSLGERIGAHRKRMGISQEELGHRMGVSRQAVSKWETGRAVPDMENLLALARLFGVPVSELAD”, the figure is -0.129; as for “HMAAPVGLTQRQMEVAALVADGLTNAEIGRRLHITERSAESHLERVRIRLGFRSRAQVAAWFVTQE”, -3.56.
The figure for “HMAATHYEGIKQDGETDDAVIERVLTGLSVTANKDDIFIVKTLIAGTKYSYTAYVYNGNAWAAM” is -1.38; for “HMAATSTGFPGVEVRGNSIRVFFMYKRDRHAHTLPLEPTRNNIKHADQLRSAALFALRNGTYNEADFFPHS” it is -1.6; for “HMAATVKVPDLTKMTPDEAQRALGQVGLKGKQGDDVDDDSVPVGYIAKQDEAPNSDAKAGDTITYHL” it is 0.15.
The figure for “HMAAVSSHAVKQRIRSLIQAEDPASPLSDEALRLALSALGVEVSRRAVAKYRTSMDIPASSQRKK” is -0.656; for “HMADEDTILALAKEILASWPDKVEAYKNGNKGMLGLFMGELMKKSGGKANPKSASALIQKLLE” it is -0.13.
“HMADEIQLVVQVNGKLRGRIMVAPDASREEIEKTALADADVSRFLGDTPVKKVIIVPKRLVNIVAPAPK”: the “soluble fraction (log2)” value was -1.08.
In the case of “HMADENIELRKAGLKVTLPRVKILQILEAAKEPHMSAEDVYKALMEANEEVGLATVYRVLTQFESAGL”, the “soluble fraction (log2)” value is -0.245.
As for “HMADGKWTLTDAGYTFTYSDGRKARGTWEDIDGEWYHFDRNGIMETGWKTVGNIRYHFNQDGSL”, the “soluble fraction (log2)” value was -1.52.
In the case of “HMADIGRMKELIDILNRASAVYYQGKDEIMSNFEYDKLYDELVSLEKESGLVLAGSPTQKVGY”, the “soluble fraction (log2)” value is -0.179.
As for “HMADKHVAAALLKLMDHLVGGRQYAFMKGRLTINKKVVLEATEVSAYRRGTGLSDADWQQRYE”, the figure is -2.06.
Regarding “HMADLKRLNEQIHYLGQYLSTKATYKEFLQANNKKIYRSEHQDEIAKYEEAAQFLKRSSPDGTIPTMKDLR”, the “soluble fraction (log2)” value was -0.27.
For “HMADLSAYAGKEGMTDSVLRPSGKVDIEGHILDAVSRGDFIEKGKRVIVIKAEGSYLVVKKRMP”, the “soluble fraction (log2)” value was -1.84.
On to “HMADLTEEQKTLFRLIRDLQPVSSKTLLENSGFTRSTQTRLLNGLIEKQIVIRTGNGPATRYSLR”, for which the “soluble fraction (log2)” value was -1.26.
As for “HMADLTIDGVEYTKVSPTGTLTLEKVYTKNVTPADGQYYIQTGTKTVRVATDAEVAVIKAGGF”, the figure is 0.153.
As for “HMADNKDMQAAFMEALNGLKEYAKVNGNIVTKEDVNSYFKDMHLDDNKYSMITGYLMANGITIKG”, the figure is 0.179; as for “HMADPRFHSEIMLSKIESLLSGKADSDVSNYSIQGRSLTKMSLQELMDARESYDGLVKSEKAKLDAKY”, 0.0156.
As for “HMADPVTPQDLIRWSEALAGIARTGLGFTQSLYEQERFEEVLAVAADMRVAAGSSYNPDDLVHEWMKSVG”, the figure is -0.565; as for “HMADQVVGQLGMVTQRIDNLQQTGRVSANGLDWAARSENGQPIPQGMPVEVLRIEGVKLIVRPVN”, -0.114; as for “HMADTIEVVVQVNGKVRAKISTSPEVFADSTKLQELALADANVQKFIAGQTIRKVIIPKGTKLLNIV”, -0.198.
On to “HMADTSPEGVQKLIKAFEQFGVSKDDIEGFIQRRVDAITPANVVSLRKIFTSLRDGMSSAKDWFKGA”, for which the “soluble fraction (log2)” value came out at 0.095.
The figure for “HMADVIKLVNTSVLNVRSGAGINYSKIGSLTQGTKVNIISESNGWSKINYNGKIGYISSQYVSEVS” is -1.92.
As for “HMADVLLKHGSSGDYVWDLQYRLKTLSLFDQEMTGYFGPHTRQAVVNFQRKYGLPADGVVGPATWRALRK”, the figure is -2.41.
The figure for “HMADVPSTIFEAYRILGLNPEAPPVAVKKVVDALRMSWHPDHARSEPDRRHREERIKQINAAWDLLKGV” is -0.183.
As for “HMADVYFDGKFLGETPVTVAVSTTGKPAHEISLIRGGYEPWSTTYQGNPRPGQTATVMAILVHA”, the “soluble fraction (log2)” value came to 0.31.
As for “HMAEAAVELSQQILARLLEAGGSLPLSDKSSPEDIHRLFGVSKRTFKKAIGGLYKKGLILIHPERIELP”, the figure is -1.37.
For the sequence “HMAEAETVKFVGNSLLLVSGAAKGERLSVYTVGGQHVLSADATKPVDVAALHSGVYVVRTTNGVITKIVK”, the “soluble fraction (log2)” value is -1.25.
As for “HMAEATATVTASEMVVRSGPSSSYSVLGSLEKGTVVTVLAASDGIAKISYKGNTGYARIVDMELNSA”, the figure is -0.612; as for “HMAEDDAVQKAVREAVAESADAVADYKAGSERALNFIVGVVMKKTRGKASPGEVHRLVKAEVEK”, 0.595.
In the case of “HMAEDLRTLDGIDEDLLRDLAQAGITTRDGLAELSIDELREITGVEPGEAEKIILAARAHWFETDE”, the “soluble fraction (log2)” value worked out at 0.0602.
In the case of “HMAEEGEQAASNTAAQAEDRAAELAAAGEKGKQITKTLVAEFGIPKNEAYRLALDAVAAVKAER”, the “soluble fraction (log2)” value was -0.265.
As to “HMAEEPLRIWTDLQGRSIEASFIKFSGNNIVIKMKSGRDYEVARSLFSPGDQKYLSDLKKSTPE”, the “soluble fraction (log2)” value was -1.5.
As for “HMAEERVLSVPQSLAGERLDAALASLMPDYSRSRLASWIKEGLVTVDGAGAMPKQKLWGGETLRVQAQPT”, the figure is 0.373.
As for “HMAEKAVELTENEKAIQTILSNGALEIGELKTKLELSGKQWDVALKGLAKHGITQVSKVEGVVTVGL”, the figure is 0.359.
The figure for “HMAEKGIGRVNADWLNMRTSPGGEVLTVLKQGTELQVIGRSGSWLEVQHGNEQGYVSSRYITIQP” is -0.356; for “HMAEKVIVVADSITVGELAEKLNLPVTNLIGELFKNGIVSTINQRIDFETASIIVEELGLDVELERK” it is -0.137; for “HMAELNLPVRKIGGEDYYYRQVKKKETIYGISKELGITKEDIIKYNPSVASGLQRNQILYFPVKDFK” it is -0.327.
Take “HMAELVISVKADGTIHYQDRQLTKEALAAVLETRPEALLNLYVDEKAPFEAFVGVVDIARLKRGGHFVIST”: the “soluble fraction (log2)” value was -1.94.
